Reference: paper doi:10.1101/2021.11.20.466133

Target: T1, MsDisA (Mycobacterium smegmatis mc2155, UniProt A0R564 1-372)
T1 sequence: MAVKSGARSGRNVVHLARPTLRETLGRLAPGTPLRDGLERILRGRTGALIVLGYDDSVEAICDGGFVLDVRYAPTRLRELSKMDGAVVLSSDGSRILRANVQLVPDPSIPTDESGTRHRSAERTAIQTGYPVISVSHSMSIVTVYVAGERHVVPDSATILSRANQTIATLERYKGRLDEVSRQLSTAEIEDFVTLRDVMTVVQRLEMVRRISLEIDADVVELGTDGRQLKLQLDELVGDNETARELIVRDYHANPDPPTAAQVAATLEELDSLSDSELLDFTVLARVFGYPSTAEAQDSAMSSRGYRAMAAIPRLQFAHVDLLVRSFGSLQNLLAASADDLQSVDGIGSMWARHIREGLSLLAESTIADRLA
Assay: EMSA

B1: HLDNA (synthetic Holliday junction) (structured_DNA)
DNA 1: ATCGATAGTCTCTAGACAGCATGTCCTAGCAAGCCAGAATTCGGCAGCGT
DNA 2: GACGCTGCCGAATTCTGGCTTGCTAGGACATTCTTTGCCCACGTTGACCC
DNA 3: GGGTCAACGTGGCAAAGAATGTCCTACGTCCGATACGGATAATCGCCAT
DNA 4: ATGGCGATTATCCGTATCGGACGTCGGACATGCTGTCTAGAGACTATCGA
B1: no binding.

B2: dsDNA 50mer (dsDNA)
DNA 1: GGATACGTAACAACGCTTATGCATCGCCGCCGCTACATCCCTGAGCTGAC
DNA 2: GTCAGCTCAGGGATGTAGCGGCGGCGATGCATAAGCGTTGTTACGTATCC
B2: no binding.
